Laboratory results as given in publication PMC9482650, “Quantitative fragmentomics allow affinity mapping of interactomes” (Nature Communications, 2022).

Experiments:
Test in all cases: holdup assay
Parameters in all cases: key: below the threshold = too weak to quantify, mostly under pKd 3.1 to 4
Settings in all cases: plain residues with an end cap or a label only (N-terminal biotin on a linker: ado-ado)
APBA2_1, Q99767 = biological target: T1, APBA2_1, Q99767
T1 sequence (Q99767 563-664, limits assumed, looked up): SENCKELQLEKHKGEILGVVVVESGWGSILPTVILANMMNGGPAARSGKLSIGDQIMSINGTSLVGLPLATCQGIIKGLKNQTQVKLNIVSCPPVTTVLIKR

ARHGEF11, O15085 = biological target: T2, ARHGEF11, O15085
T2 sequence (O15085 42-136, limits assumed, looked up): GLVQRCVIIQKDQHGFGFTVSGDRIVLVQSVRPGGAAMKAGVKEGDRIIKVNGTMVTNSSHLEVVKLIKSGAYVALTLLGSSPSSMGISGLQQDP

ARHGEF12, Q9NZN5-2 = biological target: ARHGEF12, Q9NZN5-2
CASK, O14936 = biological target: CASK, O14936
DLG2_2, Q15700 = biological target: DLG2_2, Q15700
DLG2_3, Q15700 = biological target: DLG2_3, Q15700
GRID2IP_1, A4D2P6 = biological target: GRID2IP_1, A4D2P6
GRIP1_2, Q9Y3R0 = biological target: T3, GRIP1_2, Q9Y3R0
T3 sequence (Q9Y3R0 145-248, limits assumed, looked up): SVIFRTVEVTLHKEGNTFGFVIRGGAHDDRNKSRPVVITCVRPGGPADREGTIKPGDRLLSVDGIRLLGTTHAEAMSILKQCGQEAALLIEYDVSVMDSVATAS

GRIP1_3, Q9Y3R0 = biological target: T4, GRIP1_3, Q9Y3R0
T4 sequence (Q9Y3R0 247-346, limits assumed, looked up): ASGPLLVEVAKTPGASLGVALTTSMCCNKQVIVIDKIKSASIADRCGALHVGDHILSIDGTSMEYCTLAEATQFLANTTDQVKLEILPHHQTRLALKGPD

GRIP2_6, Q9C0E4 = biological target: GRIP2_6, Q9C0E4
HTRA1, Q92743 = biological target: HTRA1, Q92743
IL16_4, Q14005 = biological target: IL16_4, Q14005
Inadl_10, Q8NI35 = biological target: Inadl_10, Q8NI35
Inadl_2, Q8NI35 = biological target: Inadl_2, Q8NI35
LIN7C, Q9NUP9 = biological target: T5, LIN7C, Q9NUP9
T5 sequence (Q9NUP9 88-185, limits assumed, looked up): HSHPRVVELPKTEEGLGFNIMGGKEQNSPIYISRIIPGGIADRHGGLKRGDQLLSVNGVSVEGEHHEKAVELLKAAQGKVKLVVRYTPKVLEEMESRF

LNX1_2, Q8TBB1 = biological target: LNX1_2, Q8TBB1
MAGI1_1, Q96QZ7 = biological target: MAGI1_1, Q96QZ7
NHERF3_1, Q5T2W1 = biological target: T6, NHERF3_1, Q5T2W1
T6 sequence (Q5T2W1 4-100, limits assumed, looked up): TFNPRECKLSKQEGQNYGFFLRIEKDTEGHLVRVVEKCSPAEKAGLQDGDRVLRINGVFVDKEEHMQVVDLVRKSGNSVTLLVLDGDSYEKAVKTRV

NHERF3_3, Q5T2W1 = biological target: T7, NHERF3_3, Q5T2W1
T7 sequence (Q5T2W1 238-333, limits assumed, looked up): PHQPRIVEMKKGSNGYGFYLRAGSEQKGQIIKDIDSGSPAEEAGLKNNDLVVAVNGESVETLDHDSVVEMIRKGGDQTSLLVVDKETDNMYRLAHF

PDZRN4_1, Q6ZMN7 = biological target: PDZRN4_1, Q6ZMN7
RADIL, Q96JH8 = biological target: T8, RADIL, Q96JH8
T8 sequence (Q96JH8 971-1071, limits assumed, looked up): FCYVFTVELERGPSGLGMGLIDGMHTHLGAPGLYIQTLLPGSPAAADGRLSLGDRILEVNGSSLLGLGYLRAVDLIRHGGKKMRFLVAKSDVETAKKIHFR

RHPN1, Q8TCX5 = biological target: T9, RHPN1, Q8TCX5
T9 sequence (Q8TCX5 508-602, limits assumed, looked up): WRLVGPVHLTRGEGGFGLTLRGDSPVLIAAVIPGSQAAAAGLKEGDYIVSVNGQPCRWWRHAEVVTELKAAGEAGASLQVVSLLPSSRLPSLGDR

SNTG1, Q9NSN8 = biological target: T10, SNTG1, Q9NSN8
T10 sequence (Q9NSN8 52-150, limits assumed, looked up): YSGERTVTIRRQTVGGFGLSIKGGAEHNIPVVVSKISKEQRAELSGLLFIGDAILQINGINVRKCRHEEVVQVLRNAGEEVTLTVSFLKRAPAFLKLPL

SYNJ2BP, P57105 = biological target: T11, SYNJ2BP, P57105
T11 sequence (P57105 8-110, limits assumed, looked up): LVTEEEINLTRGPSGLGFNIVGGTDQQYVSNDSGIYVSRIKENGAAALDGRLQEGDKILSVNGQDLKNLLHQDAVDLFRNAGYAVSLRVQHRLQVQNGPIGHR

TJP1_2, Q07157 = biological target: TJP1_2, Q07157
TJP3_3, O95049 = biological target: T12, TJP3_3, O95049
T12 sequence (O95049 375-456, limits assumed, looked up): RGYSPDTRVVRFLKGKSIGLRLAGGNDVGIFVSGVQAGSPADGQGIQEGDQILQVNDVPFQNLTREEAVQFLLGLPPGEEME

Chain of GRIP2_6, Q9C0E4 (Q9C0E4 648-740): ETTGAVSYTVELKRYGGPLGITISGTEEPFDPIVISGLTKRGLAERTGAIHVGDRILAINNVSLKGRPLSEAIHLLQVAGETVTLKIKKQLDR
Chain of LNX1_2, Q8TBB1 (Q8TBB1 371-470): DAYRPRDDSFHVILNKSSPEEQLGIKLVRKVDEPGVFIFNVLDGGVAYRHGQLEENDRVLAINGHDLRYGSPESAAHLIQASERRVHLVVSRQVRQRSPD
Chain of GRID2IP_1, A4D2P6 (A4D2P6 1-87): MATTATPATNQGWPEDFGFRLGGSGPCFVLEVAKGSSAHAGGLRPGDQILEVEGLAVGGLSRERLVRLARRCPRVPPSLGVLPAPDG
Chain of HTRA1, Q92743 (Q92743 360-477): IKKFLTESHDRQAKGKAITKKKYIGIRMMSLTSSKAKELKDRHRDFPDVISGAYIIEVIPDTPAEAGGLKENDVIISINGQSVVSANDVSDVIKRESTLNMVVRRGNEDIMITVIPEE
Chain of TJP1_2, Q07157 (Q07157 181-274): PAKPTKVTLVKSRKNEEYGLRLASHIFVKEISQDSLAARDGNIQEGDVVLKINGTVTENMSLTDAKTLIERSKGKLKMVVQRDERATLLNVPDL
Chain of PDZRN4_1, Q6ZMN7 (Q6ZMN7 213-318): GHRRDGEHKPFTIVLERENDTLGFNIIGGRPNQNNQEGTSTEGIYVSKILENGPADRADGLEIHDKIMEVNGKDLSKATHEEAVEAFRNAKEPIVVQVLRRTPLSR
Chain of Inadl_2, Q8NI35 (Q8NI35 238-335): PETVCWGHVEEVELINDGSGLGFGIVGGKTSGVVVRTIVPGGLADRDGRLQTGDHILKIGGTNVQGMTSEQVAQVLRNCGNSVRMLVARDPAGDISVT
Chain of Inadl_10, Q8NI35 (Q8NI35 1673-1763): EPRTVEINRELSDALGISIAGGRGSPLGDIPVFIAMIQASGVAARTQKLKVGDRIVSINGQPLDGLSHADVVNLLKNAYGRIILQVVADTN
Chain of CASK, O14936 (O14936 487-570): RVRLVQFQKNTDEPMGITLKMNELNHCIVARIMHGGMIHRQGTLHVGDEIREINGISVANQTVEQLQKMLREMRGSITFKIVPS
Chain of IL16_4, Q14005 (Q14005 1229-1329): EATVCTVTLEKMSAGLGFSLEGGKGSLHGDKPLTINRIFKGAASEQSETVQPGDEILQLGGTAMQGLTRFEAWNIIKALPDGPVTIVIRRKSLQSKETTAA
Chain of MAGI1_1, Q96QZ7 (Q96QZ7 1-106): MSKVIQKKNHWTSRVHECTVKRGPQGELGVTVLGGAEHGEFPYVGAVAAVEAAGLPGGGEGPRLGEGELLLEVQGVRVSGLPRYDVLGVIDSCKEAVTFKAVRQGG
Chain of ARHGEF12, Q9NZN5-2 (Q9NZN5 other isoform, or with tags, fused parts or gaps): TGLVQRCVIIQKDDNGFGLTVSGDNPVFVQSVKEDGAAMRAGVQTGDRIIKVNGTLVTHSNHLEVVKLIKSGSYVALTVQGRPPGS

Binder	pKd (APBA2_1, Q99767)	pKd (ARHGEF11, O15085)	pKd (ARHGEF12, Q9NZN5-2)	pKd (CASK, O14936)	pKd (DLG2_2, Q15700)	pKd (DLG2_3, Q15700)	pKd (GRID2IP_1, A4D2P6)	pKd (GRIP1_2, Q9Y3R0)	pKd (GRIP1_3, Q9Y3R0)	pKd (GRIP2_6, Q9C0E4)	pKd (HTRA1, Q92743)	pKd (IL16_4, Q14005)	pKd (Inadl_10, Q8NI35)	pKd (Inadl_2, Q8NI35)	pKd (LIN7C, Q9NUP9)	pKd (LNX1_2, Q8TBB1)	pKd (MAGI1_1, Q96QZ7)	pKd (NHERF3_1, Q5T2W1)	pKd (NHERF3_3, Q5T2W1)	pKd (PDZRN4_1, Q6ZMN7)	further results
GSSSKEGTSV [RRBP1, Q9P2E9]	below the threshold	3.83	3.91	below the threshold	3.9	3.9	below the threshold	below the threshold	below the threshold	below the threshold	3.84	3.7	below the threshold	below the threshold	below the threshold	3.49	below the threshold	below the threshold	below the threshold	4.23	pKd (RADIL, Q96JH8): below the threshold; pKd (RHPN1, Q8TCX5): 3.49; pKd (SNTG1, Q9NSN8): 3.63; pKd (SYNJ2BP, P57105): 5.41; pKd (TJP1_2, Q07157): below the threshold; pKd (TJP3_3, O95049): below the threshold
VGIERETDVL [EZH1, Q92800]	below the threshold	below the threshold	below the threshold	below the threshold	below the threshold	below the threshold	below the threshold	below the threshold	below the threshold	below the threshold	4.17	3.48	below the threshold	below the threshold	below the threshold	below the threshold	below the threshold	below the threshold	below the threshold	below the threshold	pKd (RADIL, Q96JH8): below the threshold; pKd (RHPN1, Q8TCX5): below the threshold; pKd (SNTG1, Q9NSN8): below the threshold; pKd (SYNJ2BP, P57105): below the threshold; pKd (TJP1_2, Q07157): below the threshold; pKd (TJP3_3, O95049): below the threshold
EGGKKRESEA [APPL1, Q9UKG1]	below the threshold	below the threshold	below the threshold	below the threshold	below the threshold	3.73	below the threshold	below the threshold	below the threshold	below the threshold	below the threshold	below the threshold	below the threshold	below the threshold	below the threshold	below the threshold	below the threshold	below the threshold	below the threshold	below the threshold	pKd (RADIL, Q96JH8): below the threshold; pKd (RHPN1, Q8TCX5): below the threshold; pKd (SNTG1, Q9NSN8): below the threshold; pKd (SYNJ2BP, P57105): below the threshold; pKd (TJP1_2, Q07157): below the threshold; pKd (TJP3_3, O95049): below the threshold
ADRDHASDQL [CTBP1, Q13363]	below the threshold	below the threshold	below the threshold	below the threshold	below the threshold	below the threshold	below the threshold	below the threshold	below the threshold	below the threshold	below the threshold	below the threshold	below the threshold	below the threshold	3.96	below the threshold	below the threshold	4.5	below the threshold	below the threshold	pKd (RADIL, Q96JH8): below the threshold; pKd (RHPN1, Q8TCX5): below the threshold; pKd (SNTG1, Q9NSN8): below the threshold; pKd (SYNJ2BP, P57105): below the threshold; pKd (TJP1_2, Q07157): below the threshold; pKd (TJP3_3, O95049): below the threshold
